In patent publication US20100305034A1 (UNIVERSITY OF BRISTOL, published 2010):

Molecular target: the molecule itself
Assay: Western blot of conditioned media from transfected HEK293 cells
Protocol: Full length VEGF₁₆₅b or VEGF₁₆₅ (generated by PCR from tissue) was cloned into the expression vector pcDNA₃ using standard methodology, and then transfected into HEK 293 cells and a stable cell line generated using Geneticin selection. Confluent cells were incubated in basal M200 endothelial cell medium for 48 hours, containing neither serum nor Geneticin, and the conditioned media assayed for VEGF concentration using a pan VEGF ELISA(R&D). Control conditioned media (pcDNA3-CM) was collected in the same way from HEK293 cells stably transfected with pcDNA₃. […] VEGF₁₆₅b was the same molecular weight as VEGF₁₆₅, and both isoforms correspond to previously published molecular weights for VEGF₁₆₅ (Ferrara N et al Biophys. Res. Comm. 1989; 161: 851-8). […] This is probably due to the fact that commercially available VEGF₁₆₅ is not glycosylated. There was some VEGF₁₆₅b and VEGF₁₆₅ in the conditioned media that appeared to be de-glycosylated, but this was a small fraction of the total VEGF.

B1: VEGF165b (recombinant, produced by transfected HEK293 cells) (ligand)
chain: APMAEGGGQNHHEVVKFMDVYQRSYCHPIETLVDIFQEYPDEIEYIFKPSCVPLMRCGGCCNDEGLECVPTEESNITMQIMRIKPHQGQHIGEMSFLQHNKCECRPKKDRARQENPCGPCSERRKHLFVQDPQTCKCSCKNTDSRCKARQLELNERTCRSLTRKD
notes: Secreted into conditioned medium of HEK293 cells stably transfected with pcDNA3-VEGF165b; mostly glycosylated (about 23 kDa); also called VEGF165b-CM; new isoform VEGF165b
B1: binds.
